# From patent publication US20030186868A1 (Regeneron, published 2003)
# Where two headings read alike, the source gives them in different places. Bridge positions count the residues as written; N and C are the ends. Ends that are not written are not given here.
# Tests used:
# [1] = biological target: T1, human Neuropilin-1 (hNP-1) (human, UniProt O14786 22-923); experiment: 125I-VEGF165 competition, whole COS-1 cells
# T1 construct: whole, on cells; also called hNeuropilin-1
# [2] = biological target: T2, human vascular endothelial growth factor receptor-2 (hVEGFR-2) (human, UniProt P35968 20-1356); experiment: 125I-VEGF165 competition, whole COS-1 cells
# T2 construct: whole, on cells; also called flk-1; FLK-1
# Description: (§1) Cells are plated the day before experimentation at 200,000 cells per well in twelve well tissue culture plates (VWR) in 1 ml of growth medium specific for each cell type. On the day of experimentation, the cells were pre-equilibrated at 4° C. for 30 to 60 minutes in binding buffer (0.2% BSA, Sigma; 25 mM Hepes, Gibco; MEM, Gibco). […] The binding reaction is allowed to reach equilibrium for four hours at 4° C. with gentle agitation.
# (§2) Unbound ligand is then removed by quickly washing three times with 5 ml ice cold BSA-free binding buffer (MEM, Gibco, 25 mM Hepes, Gibco). Cells are lysed by the addition of 250 μl of RIPS Buffer (previously described), and the lysed cells are transferred to 12×75 mm test tubes and counted using a gamma counter. Generation of competition curves and IC₅₀ values are performed using the Prism software package (Graphpad Software Inc., San Diego, Calif.).
# [3] = biological target: T3, VEGFR-2/NP-1 co-receptor complex (cells co-expressing hVEGFR-2 and hNP-1) (human, UniProt P35968 20-1356; O14786 22-923); experiment: 125I-VEGF165 competition, whole COS-1 cells
# T3 construct: whole, on cells; All numbers printed for cells co-expressing both receptors are put on this molecule; also called R2 + NP1 Cells; VEGFR-2/NP-1 complex
# [4] = biological target: T1, human Neuropilin-1 (hNP-1); experiment: 125I-VEGF165 competition by cold VEGF165, whole COS-1 cells
# Description: as §1, §2
# [5] = biological target: T1, human Neuropilin-1 (hNP-1); experiment: saturation binding of 125I-VEGF165, whole COS-1 cells (transient)
# Description: as §1, §2
# [6] = biological target: T1, human Neuropilin-1 (hNP-1); experiment: 125I-VEGF165 competition, stable Balb/C 3T3 A31 cells
# [7] = biological target: human vascular endothelial growth factor receptor-2 (hVEGFR-2) (human) (UniProt P35968); experiment: 125I-VEGF165 competition, whole COS-1 cells
# [8] = biological target: T1, human Neuropilin-1 (hNP-1); experiment: 125I-VEGF165 competition, whole COS-1 cells; remark: listed apart in the source
# Description: as §1, §2
# [9] = biological target: VEGFR-2/NP-1 co-receptor complex (cells co-expressing hVEGFR-2 and hNP-1) (human) (UniProt P35968); experiment: 125I-VEGF165 competition, whole COS-1 cells
# [10] = biological target: T2, human vascular endothelial growth …; experiment: cell-based or functional assay
# [11] = biological target: T2, human vascular endothelial growth …; experiment: cell-based or functional assay; remark: listed apart in the source
# [12] = biological target: T2, human vascular endothelial growth …; experiment: 125I-VEGF165 (287 pM) competition by cold ligand, COS-1 cells overexpressing VEGFR-2
# Description: The cells were then rinsed three times with ice cold binding buffer to remove unbound ligand, lysed, and transferred to 12×75 mm test tubes for counting on a gamma counter. The IC₅₀ values were calculated by fitting the data to a four parameter logistic equation (Prism software).
# [13] = biological target: VEGFR-2/NP-1 co-receptor complex (cells co-expressing hVEGFR-2 and hNP-1) (human) (UniProt P35968); experiment: 125I-VEGF165 competition, whole COS-1 cells; remark: listed apart in the source
# [14] = biological target: human Neuropilin-1 (hNP-1) (human) (UniProt O14786); experiment: 125I-VEGF165 competition, whole COS-1 cells
# [15] = biological target: T3, VEGFR-2/NP-1 co-receptor complex (cells …); experiment: 125I-VEGF165 (201 pM) competition, cells overexpressing VEGFR-2 and NP-1 (FIG. 7)
# Description: as §1, §2
# [16] = biological target: T3, VEGFR-2/NP-1 co-receptor complex (cells …); experiment: 125I-VEGF165 competition, stable Balb/C 3T3 A31 cells
# T1 sequence (O14786 22-923): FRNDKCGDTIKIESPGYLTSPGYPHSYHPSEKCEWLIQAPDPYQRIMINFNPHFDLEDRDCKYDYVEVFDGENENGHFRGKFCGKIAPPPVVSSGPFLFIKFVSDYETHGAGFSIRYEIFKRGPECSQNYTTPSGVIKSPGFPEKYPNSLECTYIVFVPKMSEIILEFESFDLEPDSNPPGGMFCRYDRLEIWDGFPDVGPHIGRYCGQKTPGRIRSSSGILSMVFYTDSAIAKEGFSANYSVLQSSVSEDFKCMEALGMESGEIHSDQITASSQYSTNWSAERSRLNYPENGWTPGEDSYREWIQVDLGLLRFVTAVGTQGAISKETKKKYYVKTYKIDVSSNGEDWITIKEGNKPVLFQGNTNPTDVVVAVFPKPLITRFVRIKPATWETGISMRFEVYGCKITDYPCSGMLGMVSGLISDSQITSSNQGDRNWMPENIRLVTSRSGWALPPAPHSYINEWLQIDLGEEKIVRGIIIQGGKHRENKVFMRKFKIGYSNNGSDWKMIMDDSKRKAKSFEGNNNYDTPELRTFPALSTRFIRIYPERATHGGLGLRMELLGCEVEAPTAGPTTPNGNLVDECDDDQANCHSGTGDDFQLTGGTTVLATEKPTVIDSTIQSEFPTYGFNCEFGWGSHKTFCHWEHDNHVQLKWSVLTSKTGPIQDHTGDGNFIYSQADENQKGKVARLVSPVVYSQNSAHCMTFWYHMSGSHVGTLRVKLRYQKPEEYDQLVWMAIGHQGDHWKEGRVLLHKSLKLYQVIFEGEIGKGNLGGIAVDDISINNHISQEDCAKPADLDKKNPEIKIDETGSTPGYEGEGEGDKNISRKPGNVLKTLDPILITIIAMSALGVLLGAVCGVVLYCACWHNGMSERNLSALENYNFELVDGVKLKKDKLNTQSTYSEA
# T2 sequence (P35968 20-1356): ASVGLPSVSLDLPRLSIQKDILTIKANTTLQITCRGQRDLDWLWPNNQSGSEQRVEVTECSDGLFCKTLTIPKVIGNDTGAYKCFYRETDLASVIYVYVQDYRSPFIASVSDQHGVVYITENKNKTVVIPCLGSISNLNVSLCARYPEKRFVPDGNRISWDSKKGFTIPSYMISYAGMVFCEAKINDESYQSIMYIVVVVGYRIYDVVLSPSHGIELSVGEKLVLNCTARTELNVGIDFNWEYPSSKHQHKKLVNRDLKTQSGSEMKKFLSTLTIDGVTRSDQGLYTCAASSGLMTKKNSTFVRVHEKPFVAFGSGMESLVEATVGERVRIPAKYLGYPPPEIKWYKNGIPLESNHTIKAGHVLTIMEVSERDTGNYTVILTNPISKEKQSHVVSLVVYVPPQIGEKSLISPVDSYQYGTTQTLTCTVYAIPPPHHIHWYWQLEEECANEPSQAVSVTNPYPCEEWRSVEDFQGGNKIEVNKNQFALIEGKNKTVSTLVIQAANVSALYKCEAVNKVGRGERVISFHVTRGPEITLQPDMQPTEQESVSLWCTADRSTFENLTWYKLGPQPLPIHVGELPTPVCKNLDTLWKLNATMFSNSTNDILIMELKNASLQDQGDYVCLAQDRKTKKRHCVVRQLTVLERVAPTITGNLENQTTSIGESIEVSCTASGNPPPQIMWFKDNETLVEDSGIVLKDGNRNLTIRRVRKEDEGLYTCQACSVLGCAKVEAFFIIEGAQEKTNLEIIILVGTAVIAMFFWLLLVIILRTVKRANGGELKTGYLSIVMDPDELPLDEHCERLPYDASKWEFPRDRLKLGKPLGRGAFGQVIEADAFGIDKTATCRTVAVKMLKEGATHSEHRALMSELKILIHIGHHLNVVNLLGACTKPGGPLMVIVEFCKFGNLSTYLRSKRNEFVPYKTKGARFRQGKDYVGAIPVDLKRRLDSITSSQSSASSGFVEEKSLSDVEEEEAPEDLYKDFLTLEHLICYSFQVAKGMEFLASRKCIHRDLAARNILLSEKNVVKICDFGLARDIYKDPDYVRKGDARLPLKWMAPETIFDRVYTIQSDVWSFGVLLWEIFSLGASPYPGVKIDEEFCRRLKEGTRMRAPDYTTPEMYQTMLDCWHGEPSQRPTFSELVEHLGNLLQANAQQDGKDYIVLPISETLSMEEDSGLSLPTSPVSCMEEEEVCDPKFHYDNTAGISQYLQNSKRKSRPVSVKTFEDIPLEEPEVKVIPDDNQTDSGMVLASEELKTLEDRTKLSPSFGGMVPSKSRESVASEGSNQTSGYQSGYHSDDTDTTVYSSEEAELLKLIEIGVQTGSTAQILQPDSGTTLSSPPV
# Chain of human vascular endothelial growth factor receptor-2 (hVEGFR-2) (human) (P35968 20-1356): as above
# T3 sequence (P35968 20-1356, chain 1 of 2): as the sequence (P35968 20-1356) above
# T3 sequence (O14786 22-923, chain 2 of 2): as the sequence (O14786 22-923) above
# Chain of VEGFR-2/NP-1 co-receptor complex (cells co-expressing hVEGFR-2 and hNP-1) (human) (P35968 20-1356, chain 1 of 2): as the sequence (P35968 20-1356) above
# Chain of VEGFR-2/NP-1 co-receptor complex (cells co-expressing hVEGFR-2 and hNP-1) (human) (O14786 22-923, chain 2 of 2, further chain): as the sequence (O14786 22-923) above
# Chain of human Neuropilin-1 (hNP-1) (human) (O14786 22-923): as above
binder,measurement,setting,value
RRPKGRGKRRREKQRPCDKPRR (synthetic; holds one free cysteine; also called P6V8 parent peptide) [P6V8],binding result,[1],binds
"CAGRGKRCREKQRPSDKPRR (disulfide 1-8, also called P6V8-3NCSA-1 7CCA1) [P6V8-3NCS1-7CCA1]",binding result,[2],no binding
CAGRGARCREKQRPSDKPRR (disulfide 1-8) [P6V8-3NCS1-7CCA1A5],binding result,[2],no binding
CKGRGARCREKQRPSDKPRR (disulfide 1-8) [P6V8-3NCS1-7CCA5],binding result,[2],no binding
"CKGRGKRCREKQRPSDKPRR (disulfide 1-8; also: capped amino and carboxyl termini, caps not given here) [(cap)P6V8-3NCS1-7CC]",binding result,[2],no binding
same,binding result,[3],no binding
same,binding result,[1],no binding
"human recombinant VEGF165 (ligand, UniProt P15692-4 27-191, looked up, 125I-labelled (chloramine T) where used as tracer) APMAEGGGQNHHEVVKFMDVYQRSYCHPIETLVDIFQEYPDEIEYIFKPSCVPLMRCGGCCNDEGLECVPTEESNITMQIMRIKPHQGQHIGEMSFLQHNKCECRPKKDRARQENPCGPCSERRKHLFVQDPQTCKCSCKNTDSRCKARQLELNERTCRCDKPRR",IC50,[4],0.582 nM
same,log IC50,[4],-9.24
same,Kd,[5],2.09 nM
same,Log Kd,[5],-8.68
KGRGKRRREKQRPCDKPRR [P6V8-3N],IC50,[6],254 nM
AGRGARRREKQRPSDKPRR [P6V8-3NCSA1A5],binding result,[2],no binding
AGRGKARREKQRPSDKPRR [P6V8-3NCSA1A6],binding result,[2],no binding
KGAGARRREKQRPSDKPRR [P6V8-3NCSA3A5],binding result,[2],no binding
KGAGKARREKQRPSDKPRR [P6V8-3NCSA3A6],binding result,[2],no binding
"AGRGARAAEKQAPSDKPRR [P6V8-3NCSA1, 5, 7, 8, 12]",binding result,[2],no binding
"KGRGKRAAEAQRPSDKPRR [P6V8-3NCSA7, 8, 10]",relative affinity (IC50 peptide / IC50 VEGF165),[7],110000
RPCDKPRR [V8],binding result,[2],no binding
same,binding result,[8],no binding
RPSDKPRR [V8CS],binding result,[2],no binding
"KGRGKRRREKQRPSDKPRR (not fully specified (N-terminus, C-terminus); also: amino and carboxyl termini capped, caps not given here) [(cap)P6V8-3NCS]",relative affinity (IC50 peptide / IC50 VEGF165),[9],96200
same,binding result,[2],no binding
KGRGKRRRECQRPSCKPRR (disulfide 10-15) [P6V8-3NCSC13C18],binding result,[2],no binding
same,binding result,[3],binds
same,binding result,[1],binds
"CKGRGKRCREKQRPSDKPRR (disulfide 1-8, also called P6V8-3NCW1-7CC) [P6V8-3NCS1-7CC]",binding result,[2],no binding
"VEGF121 (ligand, UniProt P15692-9 27-147, looked up) APMAEGGGQNHHEVVKFMDVYQRSYCHPIETLVDIFQEYPDEIEYIFKPSCVPLMRCGGCCNDEGLECVPTEESNITMQIMRIKPHQGQHIGEMSFLQHNKCECRPKKDRARQEKCDKPRR",EC50 of VEGF121 for VEGFR-2 phosphorylation in HUVEC in the presence of 100 µM P6 (FIG. 8),[10],2.38 nM
same,EC50 of VEGF121 for VEGFR-2 phosphorylation in HUVEC in the presence of 100 µM P6V8 (FIG. 8),[10],4.04 nM
same,EC50 of VEGF121 for VEGFR-2 phosphorylation in HUVEC with antagonist P6V8-3NCSC13C18 (FIG. 12),[10],2.08 nM
same,"EC50 of VEGF121 for VEGFR-2 phosphorylation in HUVEC, no peptide (FIG. 8)",[10],1.84 nM
same,"EC50 of VEGF121 for VEGFR-2 phosphorylation in HUVEC, no peptide (FIG. 12)",[10],2.75 nM
same,"EC50 of VEGF121 for VEGFR-2 phosphorylation in HUVEC, no peptide (FIG. 13)",[10],3.38 nM
same,"EC50 of VEGF121, VEGFR-2 anti-phosphotyrosine assay in HUVEC, no peptide added",[11],2.45 nM
same,"EC50 of VEGF121, VEGFR-2 anti-phosphotyrosine assay in HUVEC, with 100 µM P6",[11],2.4 nM
same,"EC50 of VEGF121, VEGFR-2 anti-phosphotyrosine assay in HUVEC, with 100 µM P6V8",[11],4.07 nM
same,"EC50 of VEGF121, VEGFR-2 anti-phosphotyrosine assay in HUVEC, with 100 µM P6V8-3N",[11],1.17 nM
same,"EC50 of VEGF121, VEGFR-2 anti-phosphotyrosine assay in HUVEC, with 100 µM P6V8-3N (second row with this label)",[11],1.62 nM
same,"EC50 of VEGF121, VEGFR-2 anti-phosphotyrosine assay in HUVEC, with 100 µM P6V8-3NCS",[11],4.57 nM
same,"EC50 of VEGF121, VEGFR-2 anti-phosphotyrosine assay in HUVEC, with 100 µM P6V8-3NCS1-7CC",[11],3.31 nM
same,"EC50 of VEGF121, VEGFR-2 anti-phosphotyrosine assay in HUVEC, with 100 µM P6V8-3NCSA7, 8, 10, 12",[11],17.8 nM
same,"EC50 of VEGF121, VEGFR-2 anti-phosphotyrosine assay in HUVEC, with 100 µM P6V8-3NCSC13C18",[11],2.09 nM
same,"Log EC50 of VEGF121, VEGFR-2 anti-phosphotyrosine assay in HUVEC, no peptide added",[11],-8.61
same,"Log EC50 of VEGF121, VEGFR-2 anti-phosphotyrosine assay in HUVEC, with 100 µM P6",[11],-8.62
same,"Log EC50 of VEGF121, VEGFR-2 anti-phosphotyrosine assay in HUVEC, with 100 µM P6V8",[11],-8.39
same,"Log EC50 of VEGF121, VEGFR-2 anti-phosphotyrosine assay in HUVEC, with 100 µM P6V8-3N",[11],-8.93
same,"Log EC50 of VEGF121, VEGFR-2 anti-phosphotyrosine assay in HUVEC, with 100 µM P6V8-3N (second row with this label)",[11],-8.79
same,"Log EC50 of VEGF121, VEGFR-2 anti-phosphotyrosine assay in HUVEC, with 100 µM P6V8-3NCS",[11],-8.34
same,"Log EC50 of VEGF121, VEGFR-2 anti-phosphotyrosine assay in HUVEC, with 100 µM P6V8-3NCS1-7CC",[11],-8.48
same,"Log EC50 of VEGF121, VEGFR-2 anti-phosphotyrosine assay in HUVEC, with 100 µM P6V8-3NCSA7, 8, 10, 12",[11],-7.75
same,"Log EC50 of VEGF121, VEGFR-2 anti-phosphotyrosine assay in HUVEC, with 100 µM P6V8-3NCSC13C18",[11],-8.68
same,binding result,[8],no binding
same,IC50,[12],0.312 nM
"KGRGKRAAEKQAPSDKPRR [P6V8-3NCSA7, 8, 12]",relative affinity (IC50 peptide / IC50 VEGF165),[13],36600
same,relative affinity (IC50 peptide / IC50 VEGF165),[7],6000
"AGRGARAAEAQRPSDKPRR [P6V8-3NCSA1, 5, 7, 8, 10]",relative affinity (IC50 peptide / IC50 VEGF165),[7],212000
same,relative affinity to lead peptide (IC50 peptide / IC50 P6V8-3NCS),[14],67.8
RRPAAAGKRRREKQRPSDKPRR [AS-1],binding result,[2],no binding
RRPKGRGKRRREKQRP (also called P6 peptide; pp6) [P6],IC50,[15],12200 nM
RRPKGRGKRRREAAAPSDKPRR (also called NP-1 selective peptide) [AS-4],binding result,[2],no binding
same,IC50,[16],300 nM
same,IC50,[6],17.8 nM
"KGRGKRAAEAQAPSDKPRR [P6V8-3NCSA7, 8, 10, 12]",binding result,[2],no binding
RRPKGRGKRRREKQRPDAVPRR (also called P6P7 peptide) [P6P7],IC50,[15],1170 nM
RRPKGRGKRRREKQRAAAKPRR [AS-4a],relative affinity to lead peptide (IC50 peptide / IC50 P6V8CS),[7],1.9
